Experimental data from patent US20090131312A1.

B1: recombinant human I-TAC (ligand, UniProt O14625 22-94, looked up)
C-X-C motif chemokine 11: FPMFKRGRCLCIGPGVKAVKVADIEKASIMYPSNNCDKIEVIITLKENKGQRCLNPKSKQARLIIKKVERKNF
B2: recombinant human PF4 (ligand, UniProt P02776 32-101, looked up)
Platelet factor 4: EAEEDGDLQCLCVKTTSQVRPRHITSLEVIKAGPHCPTAQLIATLKNGRKICLDLQAPLYKKIIKKLLES
B3: recombinant human MIG (ligand, UniProt Q07325 23-125, looked up)
C-X-C motif chemokine 9: TPVVRKGRCSCISTNQGTIHLQSLKDLKQFAPSPSCEKIEIIATLKNGVQTCLNPDSADVKELIKKWEKQVSQKKKQKNGKKHQKKKVLKVRKSQRSRQKKTT

The molecules below were run against human CXCR3 (human) (UniProt P49682) (assay: cell-based or functional assay).
UniProt P49682, sequence (P49682 whole entry): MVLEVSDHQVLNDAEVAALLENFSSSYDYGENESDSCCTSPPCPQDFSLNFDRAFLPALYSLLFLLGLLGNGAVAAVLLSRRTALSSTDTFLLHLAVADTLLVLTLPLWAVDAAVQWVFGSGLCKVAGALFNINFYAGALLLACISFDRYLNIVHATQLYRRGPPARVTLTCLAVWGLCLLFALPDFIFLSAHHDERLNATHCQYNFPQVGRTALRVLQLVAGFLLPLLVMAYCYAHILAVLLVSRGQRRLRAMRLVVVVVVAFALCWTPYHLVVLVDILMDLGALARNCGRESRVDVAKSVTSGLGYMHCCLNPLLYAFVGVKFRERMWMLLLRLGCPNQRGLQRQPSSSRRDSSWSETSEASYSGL
“native PF4 with native I-TAC N-loop (ligand)” was tested, and the phosphorylated ERK1/2 (immunoblot), fold induction over control levels; HMVEC, 2 min. (fold induction over control) was 0.915, the phosphorylated ERK1/2 (immunoblot), fold induction over control levels; HMVEC, 5 min. (fold induction over control) was 1.06 and the phosphorylated ERK1/2 (immunoblot), fold induction over control levels; HMVEC, 15 min. (fold induction over control) was 3.28. For the same molecule, the phosphorylated ERK1/2 (immunoblot), fold induction over control levels; HUVEC, 2 min. (fold induction over control) was 4.13, the phosphorylated ERK1/2 (immunoblot), fold induction over control levels; HUVEC, 5 min. (fold induction over control) was 5.68 and the phosphorylated ERK1/2 (immunoblot), fold induction over control levels; HUVEC, 15 min. (fold induction over control) was 9.83. For the same molecule, the phosphorylated ERK1/2 (immunoblot), fold induction over control levels; Pre-B-cells expressing human CXCR3, 2 min. (fold induction over control) was 1.57, the phosphorylated ERK1/2 (immunoblot), fold induction over control levels; Pre-B-cells expressing human CXCR3, 5 min. (fold induction over control) was 1.16 and the phosphorylated ERK1/2 (immunoblot), fold induction over control levels; Pre-B-cells expressing human CXCR3, 15 min. (fold induction over control) was 0.931.
Work on recombinant human IP-10 (ligand) yielded a phosphorylated ERK1/2 (immunoblot), fold induction over control levels; HMVEC, 2 min. (fold induction over control) of 0.333, a phosphorylated ERK1/2 (immunoblot), fold induction over control levels; HMVEC, 5 min. (fold induction over control) of 0.07 and a phosphorylated ERK1/2 (immunoblot), fold induction over control levels; HMVEC, 15 min. (fold induction over control) of 0.382. For the same molecule, the phosphorylated ERK1/2 (immunoblot), fold induction over control levels; HUVEC, 2 min. (fold induction over control) was 10.3, the phosphorylated ERK1/2 (immunoblot), fold induction over control levels; HUVEC, 5 min. (fold induction over control) was 10.8 and the phosphorylated ERK1/2 (immunoblot), fold induction over control levels; HUVEC, 15 min. (fold induction over control) was 6.87. It also gave a phosphorylated ERK1/2 (immunoblot), fold induction over control levels; Pre-B-cells expressing human CXCR3, 2 min. (fold induction over control) of 1.03, a phosphorylated ERK1/2 (immunoblot), fold induction over control levels; Pre-B-cells expressing human CXCR3, 5 min. (fold induction over control) of 0.921 and a phosphorylated ERK1/2 (immunoblot), fold induction over control levels; Pre-B-cells expressing human CXCR3, 15 min. (fold induction over control) of 0.57.
B1 showed a phosphorylated ERK1/2 (immunoblot), fold induction over control levels; HMVEC, 2 min. (fold induction over control) of 0.205, a phosphorylated ERK1/2 (immunoblot), fold induction over control levels; HMVEC, 5 min. (fold induction over control) of 0.137 and a phosphorylated ERK1/2 (immunoblot), fold induction over control levels; HMVEC, 15 min. (fold induction over control) of 3.08. It also gave a phosphorylated ERK1/2 (immunoblot), fold induction over control levels; HUVEC, 2 min. (fold induction over control) of 1.65, a phosphorylated ERK1/2 (immunoblot), fold induction over control levels; HUVEC, 5 min. (fold induction over control) of 1.36 and a phosphorylated ERK1/2 (immunoblot), fold induction over control levels; HUVEC, 15 min. (fold induction over control) of 1.31. It also gave a phosphorylated ERK1/2 (immunoblot), fold induction over control levels; Pre-B-cells expressing human CXCR3, 2 min. (fold induction over control) of 2.24, a phosphorylated ERK1/2 (immunoblot), fold induction over control levels; Pre-B-cells expressing human CXCR3, 5 min. (fold induction over control) of 1.38 and a phosphorylated ERK1/2 (immunoblot), fold induction over control levels; Pre-B-cells expressing human CXCR3, 15 min. (fold induction over control) of 1.22.
In the case of B2, the phosphorylated ERK1/2 (immunoblot), fold induction over control levels; HMVEC, 2 min. (fold induction over control) is reported as 1.01, the phosphorylated ERK1/2 (immunoblot), fold induction over control levels; HMVEC, 5 min. (fold induction over control) is reported as 0.895 and the phosphorylated ERK1/2 (immunoblot), fold induction over control levels; HMVEC, 15 min. (fold induction over control) is reported as 1.78. For the same molecule, the phosphorylated ERK1/2 (immunoblot), fold induction over control levels; HUVEC, 2 min. (fold induction over control) was 6.85, the phosphorylated ERK1/2 (immunoblot), fold induction over control levels; HUVEC, 5 min. (fold induction over control) was 9.63 and the phosphorylated ERK1/2 (immunoblot), fold induction over control levels; HUVEC, 15 min. (fold induction over control) was 11.5. It also gave a phosphorylated ERK1/2 (immunoblot), fold induction over control levels; Pre-B-cells expressing human CXCR3, 2 min. (fold induction over control) of 1.25, a phosphorylated ERK1/2 (immunoblot), fold induction over control levels; Pre-B-cells expressing human CXCR3, 5 min. (fold induction over control) of 1.33 and a phosphorylated ERK1/2 (immunoblot), fold induction over control levels; Pre-B-cells expressing human CXCR3, 15 min. (fold induction over control) of 1.45.
In the case of B3, the phosphorylated ERK1/2 (immunoblot), fold induction over control levels; HMVEC, 2 min. (fold induction over control) is reported as 1.56, the phosphorylated ERK1/2 (immunoblot), fold induction over control levels; HMVEC, 5 min. (fold induction over control) is reported as 1.13 and the phosphorylated ERK1/2 (immunoblot), fold induction over control levels; HMVEC, 15 min. (fold induction over control) is reported as 1.31. The phosphorylated ERK1/2 (immunoblot), fold induction over control levels; HUVEC, 2 min. (fold induction over control) was 5.35, the phosphorylated ERK1/2 (immunoblot), fold induction over control levels; HUVEC, 5 min. (fold induction over control) was 6.96 and the phosphorylated ERK1/2 (immunoblot), fold induction over control levels; HUVEC, 15 min. (fold induction over control) was 5.76. It also gave a phosphorylated ERK1/2 (immunoblot), fold induction over control levels; Pre-B-cells expressing human CXCR3, 2 min. (fold induction over control) of 0.795, a phosphorylated ERK1/2 (immunoblot), fold induction over control levels; Pre-B-cells expressing human CXCR3, 5 min. (fold induction over control) of 0.842 and a phosphorylated ERK1/2 (immunoblot), fold induction over control levels; Pre-B-cells expressing human CXCR3, 15 min. (fold induction over control) of 1.76.
